These results are taken from publication doi:10.1101/2024.06.19.598823 (bioRxiv, 2024).

The target of this assay is RBD protein of SARS-like CoV WIV16 (Bat SARS-like coronavirus WIV16). Nature of the assay: ELISA.

B1: nanobody 7F (VHH)
VHH: EVQLVESGGGLVEAGGSLRLSCVASGLTFSDYTMAWFRQVPGQEREFVSHIGWGGSETYYADSVKGRFTISRDNAKNAMYLQMNELKPDDTAVYYCAADRGSSFYYVRESEYTFWGQGTQVTVSS
On to B1, for which the binding result is given as “binds”.
